# Results published in PMC6826200.
# B1: wild-type FICD (amino acid residues 104-445) [human] / itself (parent)
# chain: LEARAALNQALEMKRQGKREKAQKLFMHALKMDPDFVDALTEFGIFSEEDKDIIQADYLYTRALTISPYHEKALVNRDRTLPLVEEIDQRYFSIIDSKVKKVMSIPKGNSALRRVMEETYYHHIYHTVAIEGNTLTLSEIRHILETRYAVPGKSLEEQNEVIGMHAAMKYINTTLVSRIGSVTISDVLEIHRRVLGYVDPVEAGRFRTTQVLVGHHIPPHPQDVEKQMQEFVQWLNSEEAMNLHPVEFAALAHYKLVYIHPFIDGNGRTSRLLMNLILMQAGYPPITIRKEQRSDYYHVLEAANEGDVRPFIRFIAKCTETTLDTLLFATTEYSVALPEAQP
# Variants of: B1
# Experiment: size-exclusion chromatography (peak elution time vs protein concentration, monomer-dimer association fit)
# Settings: with itself; non-oxidised protein; parent: 55 nM
row,Kd [nM],Variant
1,831,LEARAALNQALEMKRQGKREKAQKLFMHALKMDPDFVDALTEFGIFSEEDKDIIQADYLYTRALTISPYHEKALVNRDRTLPLVEEIDQRYFSIIDSKVKKVMSIPKGNSALRRVMEETYYHHIYHTVAIEGNTLTLSEIRHILETRYCVPGKSLEEQNEVIGMHAAMKYINTTLVSRIGSVTISDVLEIHRRVLGYVDPVEAGRFRTTQVLVGHHIPPHPQDVEKQMQEFVQWLNSEEAMNLHPVEFAALAHYKLVYIHPFIDGNGRTSRLLMNLILMQAGYPPITIRKEQRSDYYHVLEAANEGDVRPFIRFIAKSTETTLDTLLFATTEYSVALPEAQP [chain 1 A149C C318S]
